± gives the uncertainty stated by the source.

Here are results for 37 sequences from the supplement of paper PMC7877785.

This data set can be described thus: self-splicing fitness, log relative to wild type (ln ratio); higher = more splicing; Tetrahymena group I intron in knt gene, E. coli kanamycin selection, DiMSum; sequences stand for … in CUCUCU…GGAGGGAAAAGUUAUCAGGCAUGCACCUGGUAGCUAGUCUUUAAACCAAUAGAUUGCAUCGGUUUAAAAGGCAAGACCGUCAAAUUGCGGGAAAGGGGUCAACAGCCGUUCAGUACCAAGUCUCAGGGGAAACUUUGAGAUGGCCUUGCAAAGGGUAUGGUAAUAAGCUGACGGACAUGGUCCUAACCACGCAGCCAAGUCCUAAGUCAACAGAUCUUCUGUUGAUAUGGAUGCAGUUCACAGACUAAAUGUCGGUCGGGGAAGAUGUAUUCUUCUCAUAAGAUAUAGUCGGACCUCUCCUUAAUGGGAGCUAGCGGAUGAAGUGAUGCAACACUGGAGCCGCUGGGAACUAAUUUGUAUGCGAAAGUAUAUUGAUUAGUUUUGGAGUACUCGUGGUCG
In a few lines:
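The eight P1ex-region nucleotides of an intron in the knt kanamycin-resistance gene on pET-22b(+) were all randomised and the library put into E. coli BL21(DE3). Six replicate transformations were grown overnight at 37°C or 30°C on LB agar with or without 25 μg/mL kanamycin, together with 100 μg/mL carbenicillin, 50 μM IPTG and 0.2% rhamnose. Colonies were pooled and amplicon-sequenced on an Illumina HiSeq 2500. Fitness from DiMSum is the error-weighted combination of wild-type-normalised replicate fold changes, kanamycin over none.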

Turning to GCAAAGCAAUAUUACGAGUU, the “self-splicing fitness (ln)” value was -2.47 ± 0.11 (30 °C) and -0.891 ± 0.093 (37 °C).

With GCAAAGCAAUAUUACGAUAA, the “self-splicing fitness (ln)” value by setting is: (30 °C) -1.48 ± 0.086; (37 °C) -1.14 ± 0.1.

Consider GCAAAGCAAUAUUACGCAUA, for which the “self-splicing fitness (ln)” value runs as follows: (30 °C) -1.86 ± 0.14; (37 °C) -1.43 ± 0.18.

As for GCAAAGCAAUAUUACGCCCG, the “self-splicing fitness (ln)” value is -1.23 ± 0.22 (30 °C) and -2.06 ± 0.38 (37 °C).

For GCAAAGCAAUAUUACGCCGG, the “self-splicing fitness (ln)” value (30 °C) was -2.44 ± 0.17 and the “self-splicing fitness (ln)” value (37 °C) is -1.71 ± 0.2.

GCAAAGCAAUAUUACGCCUU: the “self-splicing fitness (ln)” value was -2.55 ± 0.23 (30 °C) and -1.04 ± 0.21 (37 °C).

Turning to GCAAAGCAAUAUUACGCGGC, the “self-splicing fitness (ln)” value (30 °C) is -3.95 ± 0.21 and the “self-splicing fitness (ln)” value (37 °C) is -2.43 ± 0.19.

Turning to GCAAAGCAAUAUUACGCUAU, the “self-splicing fitness (ln)” value runs as follows: (30 °C) -2.57 ± 0.23; (37 °C) -1.06 ± 0.17.

For GCAAAGCAAUAUUACGCUCC, the “self-splicing fitness (ln)” value by setting is: (30 °C) -3.61 ± 0.34; (37 °C) -3.03 ± 0.43.

On to GCAAAGCAAUAUUACGGAGC, for which the “self-splicing fitness (ln)” value runs as follows: (30 °C) -3.91 ± 0.34; (37 °C) -2.07 ± 0.19.

Consider GCAAAGCAAUAUUACGGAUU, for which the “self-splicing fitness (ln)” value is, setting by setting: (30 °C) -0.922 ± 0.067; (37 °C) -0.799 ± 0.1.

In the case of GCAAAGCAAUAUUACGGCUC, the “self-splicing fitness (ln)” value (30 °C) is -0.596 ± 0.062 and the “self-splicing fitness (ln)” value (37 °C) is 0.305 ± 0.081.

Consider GCAAAGCAAUAUUACGGGCA, for which the “self-splicing fitness (ln)” value (30 °C) is -1.3 ± 0.085 and the “self-splicing fitness (ln)” value (37 °C) is -0.907 ± 0.079.

Turning to GCAAAGCAAUAUUACGGGCC, the “self-splicing fitness (ln)” value is -2.74 ± 0.13 (30 °C) and -2.03 ± 0.21 (37 °C).

As to GCAAAGCAAUAUUACGUACC, the “self-splicing fitness (ln)” value is, setting by setting: (30 °C) -0.781 ± 0.081; (37 °C) -0.64 ± 0.12.

For the sequence GCAAAGCAAUAUUACGUAUA, the “self-splicing fitness (ln)” value reads like this: (30 °C) -1.65 ± 0.19; (37 °C) -1.48 ± 0.19.

GCAAAGCAAUAUUACGUCAC: the “self-splicing fitness (ln)” value by setting is: (30 °C) -3.96 ± 0.23; (37 °C) -2.56 ± 0.44.

Regarding GCAAAGCAAUAUUACGUCGU, the “self-splicing fitness (ln)” value was -2.22 ± 0.095 (30 °C) and -2.27 ± 0.15 (37 °C).

Take GCAAAGCAAUAUUACGUUUC: the “self-splicing fitness (ln)” value was -4.41 ± 0.28 (30 °C) and -3.44 ± 0.23 (37 °C).

In the case of GCACAGCAAUAUUACGAAAU, the “self-splicing fitness (ln)” value (30 °C) was -1.63 ± 0.099 and the “self-splicing fitness (ln)” value (37 °C) was -0.818 ± 0.11.

Take GCACAGCAAUAUUACGAAGU: the “self-splicing fitness (ln)” value reads like this: (30 °C) -1.3 ± 0.11; (37 °C) -0.941 ± 0.14.

As for GCACAGCAAUAUUACGAAUA, the “self-splicing fitness (ln)” value by setting is: (30 °C) -1.42 ± 0.13; (37 °C) -1.09 ± 0.16.

On to GCACAGCAAUAUUACGAGAU, for which the “self-splicing fitness (ln)” value was -1.99 ± 0.088 (30 °C) and -0.678 ± 0.081 (37 °C).

On to GCACAGCAAUAUUACGCCGA, for which the “self-splicing fitness (ln)” value (30 °C) is -2.19 ± 0.22 and the “self-splicing fitness (ln)” value (37 °C) is -1.61 ± 0.17.

As for GCACAGCAAUAUUACGCGUG, the “self-splicing fitness (ln)” value reads like this: (30 °C) -3.87 ± 0.2; (37 °C) -2.35 ± 0.18.

Consider GCACAGCAAUAUUACGCUAU, for which the “self-splicing fitness (ln)” value reads like this: (30 °C) -1.98 ± 0.08; (37 °C) -0.752 ± 0.086.

As to GCACAGCAAUAUUACGGAAG, the “self-splicing fitness (ln)” value (30 °C) is -3.04 ± 0.13 and the “self-splicing fitness (ln)” value (37 °C) is -2.11 ± 0.13.

Regarding GCACAGCAAUAUUACGGCCG, the “self-splicing fitness (ln)” value is, setting by setting: (30 °C) -2.48 ± 0.17; (37 °C) -1.75 ± 0.18.

Turning to GCACAGCAAUAUUACGGGAC, the “self-splicing fitness (ln)” value is, setting by setting: (30 °C) -1.04 ± 0.068; (37 °C) -1.35 ± 0.098.

Regarding GCACAGCAAUAUUACGGGAG, the “self-splicing fitness (ln)” value is -1.96 ± 0.1 (30 °C) and -1.47 ± 0.12 (37 °C).

As to GCACAGCAAUAUUACGGUUU, the “self-splicing fitness (ln)” value is, setting by setting: (30 °C) -0.633 ± 0.047; (37 °C) 0.145 ± 0.057.

For GCACAGCAAUAUUACGUACA, the “self-splicing fitness (ln)” value by setting is: (30 °C) -2.07 ± 0.1; (37 °C) -0.994 ± 0.1.

On to GCACAGCAAUAUUACGUGCU, for which the “self-splicing fitness (ln)” value (30 °C) was -3.6 ± 0.1 and the “self-splicing fitness (ln)” value (37 °C) was -2.75 ± 0.12.

With GCAGAGCAAUAUUACGAAGG, the “self-splicing fitness (ln)” value runs as follows: (30 °C) -4.31 ± 0.46; (37 °C) -1.42 ± 0.26.

Regarding GCAGAGCAAUAUUACGAUGA, the “self-splicing fitness (ln)” value by setting is: (30 °C) -1.42 ± 0.14; (37 °C) -1.07 ± 0.12.

On to GCAGAGCAAUAUUACGAUGG, for which the “self-splicing fitness (ln)” value (30 °C) was -1.98 ± 0.098 and the “self-splicing fitness (ln)” value (37 °C) is -1.65 ± 0.12.

With GCAGAGCAAUAUUACGCCGU, the “self-splicing fitness (ln)” value (30 °C) was -1.7 ± 0.15 and the “self-splicing fitness (ln)” value (37 °C) is -2.65 ± 0.41.
